Variants at the floor of the assay were thinned out.
Experiments:
biotinyl-Phe-oxazolone = test: self-aminoacylation, catalytic enhancement (BFO) (fold over background); higher = more active; k-Seq, kA / k0A0; sequences stand for … in GGGAAUGGAUCCACAUCUACGAAUUC…UUCACUGCAGACUUGACGAAGCUG
Summary of the method: (§1)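 Mutagenized RNA pools (0.43 μM; 21-nt variable region) were treated with 2–1250 μM of each biotinyl-aminoacyl-oxazolone. Conditions were 50 μL HEPES/NaCl/KCl/MgCl2/CaCl2 buffer, 5% acetonitrile, pH 6.9–7.0, room temperature, 90 minutes. Catalytic enhancement, the median kA relative to the uncatalyzed rate, was derived from streptavidin capture, qPCR and Illumina sequencing.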

biotinyl-Ile-oxazolone = test: self-aminoacylation, catalytic enhancement (BIO) (fold over background); higher = more active; k-Seq, kA / k0A0; sequences stand for … in GGGAAUGGAUCCACAUCUACGAAUUC…UUCACUGCAGACUUGACGAAGCUG
Summary of the method: as §1

biotinyl-Met-oxazolone = test: self-aminoacylation, catalytic enhancement (BMO) (fold over background); higher = more active; k-Seq, kA / k0A0; sequences stand for … in GGGAAUGGAUCCACAUCUACGAAUUC…UUCACUGCAGACUUGACGAAGCUG
Summary of the method: as §1

biotinyl-Val-oxazolone = test: self-aminoacylation, catalytic enhancement (BVO) (fold over background); higher = more active; k-Seq, kA / k0A0; sequences stand for … in GGGAAUGGAUCCACAUCUACGAAUUC…UUCACUGCAGACUUGACGAAGCUG
Summary of the method: as §1

biotinyl-Leu-oxazolone = test: self-aminoacylation, catalytic enhancement (BLO) (fold over background); higher = more active; k-Seq, kA / k0A0; sequences stand for … in GGGAAUGGAUCCACAUCUACGAAUUC…UUCACUGCAGACUUGACGAAGCUG
Summary of the method: as §1

biotinyl-Trp-oxazolone = test: self-aminoacylation, catalytic enhancement (BWO) (fold over background); higher = more active; k-Seq, kA / k0A0; sequences stand for … in GGGAAUGGAUCCACAUCUACGAAUUC…UUCACUGCAGACUUGACGAAGCUG
Summary of the method: as §1

In the case of “AUUCACCUAGGUCAUCGUGUG [Fam2.2 aminoacylation ribozyme variant]”, the self-aminoacylation (biotinyl-Phe-oxazolone) was 2.56, the self-aminoacylation (biotinyl-Ile-oxazolone) was 0.867 and the self-aminoacylation (biotinyl-Met-oxazolone) was 0.951. For the same sequence, the self-aminoacylation (biotinyl-Val-oxazolone) was 0.932, the self-aminoacylation (biotinyl-Leu-oxazolone) was 1.07 and the self-aminoacylation (biotinyl-Trp-oxazolone) was 0.654.

“AUUCACCUAGGUCAUCUGCUG [Fam2.2 aminoacylation ribozyme variant]” gave a self-aminoacylation (biotinyl-Phe-oxazolone) of 2.81, a self-aminoacylation (biotinyl-Ile-oxazolone) of 0.819 and a self-aminoacylation (biotinyl-Met-oxazolone) of 0.724. The self-aminoacylation (biotinyl-Val-oxazolone) was 0.81, the self-aminoacylation (biotinyl-Leu-oxazolone) was 0.964 and the self-aminoacylation (biotinyl-Trp-oxazolone) was 0.391.

“AUUCACCUAGGUCAUCUGUUG [Fam2.2 aminoacylation ribozyme variant]” was tested, and the self-aminoacylation (biotinyl-Phe-oxazolone) was 0.429, the self-aminoacylation (biotinyl-Ile-oxazolone) was 0.795 and the self-aminoacylation (biotinyl-Met-oxazolone) was 0.564. The self-aminoacylation (biotinyl-Val-oxazolone) was 0.693, the self-aminoacylation (biotinyl-Leu-oxazolone) was 0.618 and the self-aminoacylation (biotinyl-Trp-oxazolone) was 0.373.

Sequence “AUUCACCUAGGUCAUGGGGUA [Fam2.2 aminoacylation ribozyme variant]” has a self-aminoacylation (biotinyl-Phe-oxazolone) of 1, a self-aminoacylation (biotinyl-Ile-oxazolone) of 1.96 and a self-aminoacylation (biotinyl-Met-oxazolone) of 2.13. It also gave a self-aminoacylation (biotinyl-Val-oxazolone) of 1.83, a self-aminoacylation (biotinyl-Leu-oxazolone) of 1.88 and a self-aminoacylation (biotinyl-Trp-oxazolone) of 1.56.

With “AUUCACCUAGGUCAUUGGGCG [Fam2.2 aminoacylation ribozyme variant]” the self-aminoacylation (biotinyl-Phe-oxazolone) was 10.6, the self-aminoacylation (biotinyl-Ile-oxazolone) was 2.58 and the self-aminoacylation (biotinyl-Met-oxazolone) was 2.49. The self-aminoacylation (biotinyl-Val-oxazolone) was 2.66, the self-aminoacylation (biotinyl-Leu-oxazolone) was 3.36 and the self-aminoacylation (biotinyl-Trp-oxazolone) was 3.16.

With “AUUCACCUAGGUCAUUGGGUC [Fam2.2 aminoacylation ribozyme variant]” the self-aminoacylation (biotinyl-Phe-oxazolone) was 1.09, the self-aminoacylation (biotinyl-Ile-oxazolone) was 0.922 and the self-aminoacylation (biotinyl-Met-oxazolone) was 0.808. For the same sequence, the self-aminoacylation (biotinyl-Val-oxazolone) was 0.867, the self-aminoacylation (biotinyl-Leu-oxazolone) was 0.89 and the self-aminoacylation (biotinyl-Trp-oxazolone) was 0.734.

Work on “AUUCACCUAGGUCAUUGGGUU [Fam2.2 aminoacylation ribozyme variant]” yielded a self-aminoacylation (biotinyl-Phe-oxazolone) of 5.73, a self-aminoacylation (biotinyl-Ile-oxazolone) of 1.23 and a self-aminoacylation (biotinyl-Met-oxazolone) of 1.34. The self-aminoacylation (biotinyl-Val-oxazolone) was 1.19, the self-aminoacylation (biotinyl-Leu-oxazolone) was 1.15 and the self-aminoacylation (biotinyl-Trp-oxazolone) was 1.52.

With “AUUCACCUAGGUCAUUGUGUG [Fam2.2 aminoacylation ribozyme variant]” the self-aminoacylation (biotinyl-Phe-oxazolone) was 0.805, the self-aminoacylation (biotinyl-Ile-oxazolone) was 0.871 and the self-aminoacylation (biotinyl-Met-oxazolone) was 0.898. The self-aminoacylation (biotinyl-Val-oxazolone) was 0.835, the self-aminoacylation (biotinyl-Leu-oxazolone) was 1.03 and the self-aminoacylation (biotinyl-Trp-oxazolone) was 0.463.

Work on “AUUCACCUAGGUCCUCGGGUC [Fam2.2 aminoacylation ribozyme variant]” yielded a self-aminoacylation (biotinyl-Phe-oxazolone) of 4.38, a self-aminoacylation (biotinyl-Ile-oxazolone) of 1.21 and a self-aminoacylation (biotinyl-Met-oxazolone) of 1.51. For the same sequence, the self-aminoacylation (biotinyl-Val-oxazolone) was 1.34, the self-aminoacylation (biotinyl-Leu-oxazolone) was 1.16 and the self-aminoacylation (biotinyl-Trp-oxazolone) was 0.77.

“AUUCACCUAGGUCCUCUGGUG [Fam2.2 aminoacylation ribozyme variant]” gave a self-aminoacylation (biotinyl-Phe-oxazolone) of 31.1, a self-aminoacylation (biotinyl-Ile-oxazolone) of 2.57 and a self-aminoacylation (biotinyl-Met-oxazolone) of 4.3. It also gave a self-aminoacylation (biotinyl-Val-oxazolone) of 2.58, a self-aminoacylation (biotinyl-Leu-oxazolone) of 5.9 and a self-aminoacylation (biotinyl-Trp-oxazolone) of 4.56.

Work on “AUUCACCUAGGUCCUGGGGUG [Fam2.2 aminoacylation ribozyme variant]” yielded a self-aminoacylation (biotinyl-Phe-oxazolone) of 57.2, a self-aminoacylation (biotinyl-Ile-oxazolone) of 4.6 and a self-aminoacylation (biotinyl-Met-oxazolone) of 7.35. It also gave a self-aminoacylation (biotinyl-Val-oxazolone) of 4.05, a self-aminoacylation (biotinyl-Leu-oxazolone) of 9.12 and a self-aminoacylation (biotinyl-Trp-oxazolone) of 7.11.

“AUUCACCUAGGUCGUCCGGUG [Fam2.2 aminoacylation ribozyme variant]” gave a self-aminoacylation (biotinyl-Phe-oxazolone) of 14.4, a self-aminoacylation (biotinyl-Ile-oxazolone) of 2.52 and a self-aminoacylation (biotinyl-Met-oxazolone) of 3.34. For the same sequence, the self-aminoacylation (biotinyl-Val-oxazolone) was 2.35, the self-aminoacylation (biotinyl-Leu-oxazolone) was 3.89 and the self-aminoacylation (biotinyl-Trp-oxazolone) was 2.39.

“AUUCACCUAGGUCGUCGGGUG [Fam2.2 aminoacylation ribozyme variant]” showed a self-aminoacylation (biotinyl-Phe-oxazolone) of 9.32, a self-aminoacylation (biotinyl-Ile-oxazolone) of 1.61 and a self-aminoacylation (biotinyl-Met-oxazolone) of 1.84. It also gave a self-aminoacylation (biotinyl-Val-oxazolone) of 1.77, a self-aminoacylation (biotinyl-Leu-oxazolone) of 2.09 and a self-aminoacylation (biotinyl-Trp-oxazolone) of 1.66.

With “AUUCACCUAGGUCUACGGGUG [Fam2.2 aminoacylation ribozyme variant]” the self-aminoacylation (biotinyl-Phe-oxazolone) was 27.6, the self-aminoacylation (biotinyl-Ile-oxazolone) was 3.16 and the self-aminoacylation (biotinyl-Met-oxazolone) was 4.62. For the same sequence, the self-aminoacylation (biotinyl-Val-oxazolone) was 3.11, the self-aminoacylation (biotinyl-Leu-oxazolone) was 4.92 and the self-aminoacylation (biotinyl-Trp-oxazolone) was 4.07.

For “AUUCACCUAGGUCUUCGCGUG [Fam2.2 aminoacylation ribozyme variant]”, the self-aminoacylation (biotinyl-Phe-oxazolone) was 16.6, the self-aminoacylation (biotinyl-Ile-oxazolone) was 2.95 and the self-aminoacylation (biotinyl-Met-oxazolone) was 4.3. The self-aminoacylation (biotinyl-Val-oxazolone) was 3.96, the self-aminoacylation (biotinyl-Leu-oxazolone) was 4.5 and the self-aminoacylation (biotinyl-Trp-oxazolone) was 3.32.

With “AUUCACCUAGGUCUUCGGCUG [Fam2.2 aminoacylation ribozyme variant]” the self-aminoacylation (biotinyl-Phe-oxazolone) was 6.94, the self-aminoacylation (biotinyl-Ile-oxazolone) was 2.12 and the self-aminoacylation (biotinyl-Met-oxazolone) was 1.8. The self-aminoacylation (biotinyl-Val-oxazolone) was 1.87, the self-aminoacylation (biotinyl-Leu-oxazolone) was 2.59 and the self-aminoacylation (biotinyl-Trp-oxazolone) was 1.46.

Sequence “AUUCACCUAGGUCUUCGGGUA [Fam2.2 aminoacylation ribozyme variant]” has a self-aminoacylation (biotinyl-Phe-oxazolone) of 17.4, a self-aminoacylation (biotinyl-Ile-oxazolone) of 3.31 and a self-aminoacylation (biotinyl-Met-oxazolone) of 3.75. The self-aminoacylation (biotinyl-Val-oxazolone) was 3.6, the self-aminoacylation (biotinyl-Leu-oxazolone) was 3.22 and the self-aminoacylation (biotinyl-Trp-oxazolone) was 3.79.

“AUUCACCUAGGUGAUCGGGGG [Fam2.2 aminoacylation ribozyme variant]” was tested, and the self-aminoacylation (biotinyl-Phe-oxazolone) was 21.6, the self-aminoacylation (biotinyl-Ile-oxazolone) was 5.84 and the self-aminoacylation (biotinyl-Met-oxazolone) was 4.53. The self-aminoacylation (biotinyl-Val-oxazolone) was 4.72, the self-aminoacylation (biotinyl-Leu-oxazolone) was 5.33 and the self-aminoacylation (biotinyl-Trp-oxazolone) was 7.47.

“AUUCACCUAGGUGAUUGGGUG [Fam2.2 aminoacylation ribozyme variant]” showed a self-aminoacylation (biotinyl-Phe-oxazolone) of 13.2, a self-aminoacylation (biotinyl-Ile-oxazolone) of 2.17 and a self-aminoacylation (biotinyl-Met-oxazolone) of 2.68. The self-aminoacylation (biotinyl-Val-oxazolone) was 2.41, the self-aminoacylation (biotinyl-Leu-oxazolone) was 3.06 and the self-aminoacylation (biotinyl-Trp-oxazolone) was 2.96.

For “AUUCACCUAGGUGGUCGGGUG [Fam2.2 aminoacylation ribozyme variant]”, the self-aminoacylation (biotinyl-Phe-oxazolone) was 18.3, the self-aminoacylation (biotinyl-Ile-oxazolone) was 2.49 and the self-aminoacylation (biotinyl-Met-oxazolone) was 2.41. For the same sequence, the self-aminoacylation (biotinyl-Val-oxazolone) was 2.77, the self-aminoacylation (biotinyl-Leu-oxazolone) was 4.09 and the self-aminoacylation (biotinyl-Trp-oxazolone) was 3.42.

“AUUCACCUAGGUUGUCGGGUG [Fam2.2 aminoacylation ribozyme variant]” showed a self-aminoacylation (biotinyl-Phe-oxazolone) of 27.3, a self-aminoacylation (biotinyl-Ile-oxazolone) of 3.53 and a self-aminoacylation (biotinyl-Met-oxazolone) of 4.89. For the same sequence, the self-aminoacylation (biotinyl-Val-oxazolone) was 3.2, the self-aminoacylation (biotinyl-Leu-oxazolone) was 5.86 and the self-aminoacylation (biotinyl-Trp-oxazolone) was 4.65.

Sequence “AUUCACCUAGUCCAUCGGGUG [Fam2.2 aminoacylation ribozyme variant]” has a self-aminoacylation (biotinyl-Phe-oxazolone) of 40.5, a self-aminoacylation (biotinyl-Ile-oxazolone) of 3.54 and a self-aminoacylation (biotinyl-Met-oxazolone) of 6.16. For the same sequence, the self-aminoacylation (biotinyl-Val-oxazolone) was 3.82, the self-aminoacylation (biotinyl-Leu-oxazolone) was 6.98 and the self-aminoacylation (biotinyl-Trp-oxazolone) was 6.38.

Work on “AUUCACCUAGUUCAUCAGGUG [Fam2.2 aminoacylation ribozyme variant]” yielded a self-aminoacylation (biotinyl-Phe-oxazolone) of 0.467, a self-aminoacylation (biotinyl-Ile-oxazolone) of 0.872 and a self-aminoacylation (biotinyl-Met-oxazolone) of 0.796. It also gave a self-aminoacylation (biotinyl-Val-oxazolone) of 0.934, a self-aminoacylation (biotinyl-Leu-oxazolone) of 0.986 and a self-aminoacylation (biotinyl-Trp-oxazolone) of 0.893.

“AUUCACCUAGUUCAUCCGGUG [Fam2.2 aminoacylation ribozyme variant]” gave a self-aminoacylation (biotinyl-Phe-oxazolone) of 21.9, a self-aminoacylation (biotinyl-Ile-oxazolone) of 3.1 and a self-aminoacylation (biotinyl-Met-oxazolone) of 3.23. For the same sequence, the self-aminoacylation (biotinyl-Val-oxazolone) was 2.52, the self-aminoacylation (biotinyl-Leu-oxazolone) was 3.89 and the self-aminoacylation (biotinyl-Trp-oxazolone) was 3.54.

Work on “AUUCACCUAGUUCAUCGUGUG [Fam2.2 aminoacylation ribozyme variant]” yielded a self-aminoacylation (biotinyl-Phe-oxazolone) of 4.05, a self-aminoacylation (biotinyl-Ile-oxazolone) of 0.937 and a self-aminoacylation (biotinyl-Met-oxazolone) of 1.2. For the same sequence, the self-aminoacylation (biotinyl-Val-oxazolone) was 1.11, the self-aminoacylation (biotinyl-Leu-oxazolone) was 1.25 and the self-aminoacylation (biotinyl-Trp-oxazolone) was 1.1.

“AUUCACCUAUAUCAUCGGGUG [Fam2.2 aminoacylation ribozyme variant]” gave a self-aminoacylation (biotinyl-Phe-oxazolone) of 32.7, a self-aminoacylation (biotinyl-Ile-oxazolone) of 2.84 and a self-aminoacylation (biotinyl-Met-oxazolone) of 4.73. The self-aminoacylation (biotinyl-Val-oxazolone) was 2.56, the self-aminoacylation (biotinyl-Leu-oxazolone) was 6.53 and the self-aminoacylation (biotinyl-Trp-oxazolone) was 4.4.
